# Patent publication US8309072B2, “Irreversibly-inactivated pepsinogen fragments for modulating immune function” (The Zhabilov Trust, priority 2004, dated 2012)
# Entries after “also recorded” stand apart in the source; their conditions may differ. Where no end group is shown, it is not given here.
# Experiments:
# [1] = biological target: gp96 (Homo sapiens, UniProt P14625); assay: In vitro binding of IPF with heat shock protein gp96
# Description: FIG. 9 is a graph showing binding of an IPF with heat shock protein gp96 at dilutions of IPF 1/2500, IPF 1/500 and IPF 1/100, according to one embodiment of the present invention. A number of approaches may be used to detect complexing between IPF and gp96. By way of example, one such approach may be to obtain specific antibodies against IPF and gp96 and to build a sandwich immunoassay by suitable methods known in the art to detect the presence of these protein complexes. To detect binding of gp96 to IPF, the antigen may be coated on a plate to capture proteins from the sample and then report the binding with a specific detection antibody. The secondary (or detection) antibody may be directly labeled with MSD SULFO-TAG NHS ester or a SULFO-TAG-labeled anti-species, e.g., anti-mouse if the […] antibody is raised in mouse and the […] antibody is raised in a different species than the capture or primary antibody. Antibodies specific to IPF-gp96 complexes may also be used.
# [2] = biological target: human CD4 (Homo sapiens, UniProt P01730); assay: Biacore (SPR) binding of IPF to human CD4; conditions: in vitro
# Description: (§1) BIACORE assays were used for binding affinity. This technology measures mass concentration of biomolecules close to a surface. The surface is made specific by attaching one of the interacting partners. Sample containing the other partner(s) flows over the surface: when molecules from the sample bind to the interactant attached to the surface, the local concentration changes and an SPR (surface plasmon resonance) response is measured. The response is directly proportional to the mass of molecules that bind to the surface. The SPR response may be expressed by resonance units (RU). One RU represents change of 0.0001 in the angle of the intensity minimum which is equivalent to a change in concentration of […].
# (§2) The exact conversion factor between RU and surface concentration depends on properties of the sensor surface and the nature of the molecule responsible for the concentration change.
# (§3) The assays for these bindings were conducted by The Institute for Molecular Medicine using standard protocols.
# The BIACORE biosensor instrument for detecting compound ligand interaction. BIACORE may capture proteins including molecules from ctyosolic or tissue extracts on sensor surfaces and measure the binding kinetics. SPR is an optical technique that measures the refractive index change occurring at the sensor liquid-fluid interface layer. […]
# [3] = Biacore (SPR) binding of IPF to human serum; conditions: in vitro
# Description: as §1, §2, §3
# [4] = stated in contrast to IPF; cited from earlier work
# Chain of gp96 (P14625 22-803): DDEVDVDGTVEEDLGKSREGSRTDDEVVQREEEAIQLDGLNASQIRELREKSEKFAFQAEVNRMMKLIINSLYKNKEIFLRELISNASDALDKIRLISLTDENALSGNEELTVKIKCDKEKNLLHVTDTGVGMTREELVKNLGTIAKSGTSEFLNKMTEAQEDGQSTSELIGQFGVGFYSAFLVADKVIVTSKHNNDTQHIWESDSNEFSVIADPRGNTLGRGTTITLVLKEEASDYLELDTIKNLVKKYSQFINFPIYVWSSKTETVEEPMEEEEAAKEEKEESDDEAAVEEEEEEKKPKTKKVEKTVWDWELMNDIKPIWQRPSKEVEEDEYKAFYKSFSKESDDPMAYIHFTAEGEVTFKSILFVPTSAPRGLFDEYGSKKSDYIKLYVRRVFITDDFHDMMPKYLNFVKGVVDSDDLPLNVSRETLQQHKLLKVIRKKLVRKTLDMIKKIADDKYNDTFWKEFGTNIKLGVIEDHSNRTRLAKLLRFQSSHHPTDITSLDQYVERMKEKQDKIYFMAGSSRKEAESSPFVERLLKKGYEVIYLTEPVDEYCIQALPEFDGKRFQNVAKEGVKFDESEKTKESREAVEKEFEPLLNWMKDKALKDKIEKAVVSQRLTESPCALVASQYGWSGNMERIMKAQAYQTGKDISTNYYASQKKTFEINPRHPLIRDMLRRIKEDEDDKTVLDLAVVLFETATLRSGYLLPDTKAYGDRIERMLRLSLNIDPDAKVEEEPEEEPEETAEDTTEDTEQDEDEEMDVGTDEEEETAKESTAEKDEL
Substance,in vitro binding affinity for gp96 [1],also measured
"IPF-1: peptide of SEQ ID NO 1, TLTSGGGAIALPPSMAAPPLGPVAPLTGAIHAPTXG, fragment of approximately 45 kDa from porcine pepsinogen (not fully specified; X: residue not identified in the source; listed as Sus scrofa)",significant in vitro binding affinity,–
"IPF-2: peptide of SEQ ID NO 2, TLSTATGGAIPPVAAMPPGLVAPTHGPAIHP, from porcine pepsinogen (listed as Sus scrofa)",significant in vitro binding affinity,–
"IPF-3: peptide of SEQ ID NO 3, NXVPVSVEGYXQITLDSITX, fragment of approximately 13.5 kDa from porcine pepsinogen (not fully specified; X: residue not identified in the source; listed as Sus scrofa)",significant in vitro binding affinity,–
"IPF-4: peptide of SEQ ID NO 4, MTLTTGSGAIAPAMPPGLPPHTGAIHAPM, from porcine pepsinogen (listed as Sus scrofa)",significant in vitro binding affinity,–
"IPF-5: peptide of SEQ ID NO 5, CCATSGPCGAVMILTPHLTA, from porcine pepsinogen (listed as Sus scrofa)",significant in vitro binding affinity,–
"IPF-6: antiviral peptide characterized by SEQ ID NO 6, GDEPLENYLDTEYF, isolated from 45 kDa band of porcine pepsinogen preparation (listed as Sus scrofa)",–,binding with human CD4+ cells [2]: significant in vitro binding affinity; also recorded: demonstrates binding in vitro; binding with human serum [3]: demonstrates binding in vitro
"Pepsin: porcine pepsin A, the starting material, compared for pI",–,pI [4]: low
